Results from the supplement of paper PMC10567573.

B1: INTS3 (parent)
chain: FSDDEEDLNSKGKKREFRFHPIKE

Variants of: B1
Assay: protein stability index of a GFP-peptide fusion (GPS, HEK-293T) (PSI 1-6); higher = more stable
Conditions: c terminus: a fixed tail appended
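Note: lentivirally expressed fusions sorted by FACS into six bins by GFP to DsRed ratio, PSI derived from sequencing read proportions per bin multiplied by bin number.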

Protein stability index of substitutions, site by site:
K11: Y 3.29
G12: A 2.67, C 2.13, D 2.92, E 3.02, F 1.91, H 2.58, I 2.14, K 1.98, L 2.29, M 2.58, N 2.83, P 2.98, Q 3.2, R 2.14, S 2.65, T 2.44, V 2.1, W 2.11, Y 2.4
K13: A 3.41, C 2.89, D 3.4, E 3.6, F 2.44, G 3.42, H 2.31, I 2.31, L 3.54, M 3.23, N 3.2, P 2.85, Q 3.29, R 2.99, S 3.06, T 3.11, V 2.11, W 2.29, Y 3.02
K14: A 3.01, C 2.66, D 3.73, E 3.44, F 2.13, G 2.96, H 2.86, I 1.88, L 2.11, M 1.41, N 3.27, P 3.46, Q 3.1, R 2.88, S 3.79, T 3.46, V 2.03, W 1.53, Y 2.48
R15: A 3.8, C 3.31, D 3.94, E 4.63, F 2.81, G 3.2, H 2.26, I 3.47, K 3.89, L 2.53, M 2.56, N 3.49, P 2.6, Q 3.62, S 3.6, T 3.38, V 3.14, W 2.42, Y 2.56
E16: A 2.25, C 2.37, D 4, F 3.05, G 2.41, H 3.08, I 2.58, K 3.69, L 3.46, M 2.74, N 2.88, P 2.17, Q 2.61, R 2.23, S 2.93, T 2.67, V 2.89, W 2.45, Y 2.61
F17: A 5.13, C 5.31, D 4.43, E 5.03, G 5.18, H 5.01, I 4.9, K 5.12, L 4.76, M 4.79, N 5.01, P 5.06, Q 5.18, R 4.97, S 5.44, T 5.04, V 4.85, W 2.01, Y 4.35
R18: A 4.33, C 4.57, D 4.94, E 5.1, F 3.27, G 4.77, H 4.85, I 4.55, K 4.63, L 4.57, M 4.9, N 5.14, P 4.76, Q 5.2, S 4.12, T 4.64, V 4.56, W 3.35, Y 4.36
F19: A 5.07, C 4.98, D 5.53, E 5.59, G 4.98, H 5.29, I 4.68, K 5.4, L 4.67, M 4.86, N 5.26, P 5.07, Q 5.14, R 5.29, S 5.6, T 5.06, V 5.1, W 3.72, Y 3.49
H20: A 4.58, C 4.31, D 5.39, E 5.28, F 3.94, G 4.34, I 4.59, K 5.13, L 5.1, M 4.83, N 4.69, P 4.86, Q 4.44, R 4.24
